Experimental findings from publication PMC8111768 are described below.

In assay [1] the target is T1, VIC16 human IgG1 (wild type VIC16-human IgG1 REFORMab) (mouse | human). As to the kind of experiment: BLI. In general terms: In BLI a coated tip is dipped into the sample, and binding shifts an interference pattern.
In assay [2] the target is VIC16 human IgG1 (wild type VIC16-human IgG1 REFORMab) (mouse | human). As to the kind of experiment: BLI. This is another data set of the same source.
For assay [3], the target named is T1, VIC16 human IgG1 (wild type VIC16-human …). Kind of assay: SPR. The conditions noted are these: remark: other sources report otherwise.
Assay [4] deals with VIC16 REFORMab EFTEA (G236A/S267E/H268F/S324T/I332E) (mouse | human). As to the kind of experiment: SPR. Particulars: remark: other sources report otherwise.
Assay [5] has as its target VIC16 REFORMab KWES (printed K236W/E333S) (mouse | human). Kind of assay: SPR. The conditions noted are these: remark: other sources report otherwise.
Assay [6] concerns the target VIC16 REFORMab SDIEALGA (G236A/S239D/A330L/I332E) (mouse | human). Kind of assay: SPR. Particulars: remark: other sources report otherwise.

B1: recombinant murine FcγRIIb, P08101 30-330 (receptor)
chain: THDLPKAVVKLEPPWIQVLKEDTVTLTCEGTHNPGNSSTQWFHNGRSIRSQVQASYTFKATVNDSGEYRCQMEQTRLSDPVDLGVISDWLLLQTPQLVFLEGETITLRCHSWRNKLLNRISFFHNEKSVRYHHYSSNFSIPKANHSHSGDYYCKGSLGRTLHQSKPVTITVQGPKSSRSLP
modifications: not checked
With B1, the Kd (usually the constant that tells how readily two partners part at equilibrium) in assay [1] came out at 14.9 µM. This lies in the double-digit micromolar range.

B2: recombinant murine FcγRIII, P08508 31-261 (receptor)
chain: ALPKAVVKLDPPWIQVLKEDMVTLMCEGTHNPGNSSTQWFHNGRSIRSQVQASYTFKATVNDSGEYRCQMEQTRLSDPVDLGVISDWLLLQTPQRVFLEGETITLRCHSWRNKLLNRISFFHNEKSVRYHHYKSNFSIPKANHSHSGDYYCKGSLGSTQHQSKPVTITVQDPATTSSISLVWYHT
modifications: not checked
Regarding B2, in assay [1], the equilibrium dissociation constant (Kd) came out at 2.83 µM.

B3: recombinant murine FcγRI (receptor)
chain: EVVNATKAVITLQPPWVSIFQKENVTLWCEGPHLPGDSSTQWFINGTAVQISTPSYSIPEASFQDSGEYRCQIGSSMPSDPVQLQIHNDWLLLQASRRVLTEGEPLALRCHGWKNKLVYNVVFYRNGKSFQFSSDSEVAILKTNLSHSGIYHCSGTGRHRYTSAGVSITVKELFTTPVLRASVSSPFPEGSLVTLNCETNLLLQRPGLQLHFSFYVGSKILEYRNTSSEYHIARAEREDAGFYWCEVATEDSSVLKRSPELELQVLGPQSSAP
The molecule B3 registered a Kd in assay [2] of 0.08 µM.

B4: recombinant human FcγR2A, P12318 34-317 (receptor)
chain: QAAAPPKAVLKLEPPWINVLQEDSVTLTCQGARSPESDSIQWFHNGNLIPTHTQPSYRFKANNNDSGEYTCQTGQTSLSDPVHLTVLSEWLVLQTPHLEFQEGETIMLRCHSWKDKPLVKVTFFQNGKSQKFSHLDPTFSIPQANHSHSGDYHCTGNIGYTLFSSKPVTITVQVPSMGSSSPMG
modifications: not checked
In assay [3], B4 gave a Kd of 30 µM. This lies in the double-digit micromolar range.

B5: recombinant human FcγR2B, P31994 43-310 (receptor)
chain: TPAAPPKAVLKLEPQWINVLQEDSVTLTCRGTHSPESDSIQWFHNGNLIPTHTQPSYRFKANNNDSGEYTCQTGQTSLSDPVHLTVLSEWLVLQTPHLEFQEGETIVLRCHSWKDKPLVKVTFFQNGKSKKFSRSDPNFSIPQANHSHSGDYHCTGNIGYTLYSSKPVTITVQAP
modifications: here or on the partner: soluble ectodomain by convention (UniProt topology); tag not stated
Consider B5, for which the Kd came out at 1.2 µM in assay [4], 224 µM in assay [5], 21 µM in assay [6] and 23 µM in assay [3].

B6: recombinant murine FcγRIV, A0A0B4J1G0 21-249 (receptor)
chain: GLQKAVVNLDPKWVRVLEEDSVTLRCQGTFSPEDNSIKWFHNESLIPHQDANYVIQSARVKDSGMYRCQTALSTISDPVQLEVHMGWLLLQTTKWLFQEGDPIHLRCHSWQNRPVRKVTYLQNGKGKKYFHENSELLIPKATHNDSGSYFCRGLIGHNNKSSASFRISLGDPGSPSMFPPWHQ
modifications: not checked
In turn, B6 came in with a Kd in assay [1] of 0.24 µM.
